# Experimental data taken from patent US20250288697A1.
# Read-outs that look alike come from different tables or passages of the source.
# What was measured:
# [1] = target: recombinant mouse TNFα (mouse) (UniProt P06804)
# [2] = target: recombinant mouse TNFα (mouse) (UniProt P06804); remark: listed apart in the source
# Sequence of UniProt P06804 (P06804 80-235 limits assumed): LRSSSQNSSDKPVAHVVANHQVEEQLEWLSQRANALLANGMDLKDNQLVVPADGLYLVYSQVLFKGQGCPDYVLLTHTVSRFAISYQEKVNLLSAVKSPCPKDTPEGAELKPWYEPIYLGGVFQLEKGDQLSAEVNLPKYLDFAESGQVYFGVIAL
substance,measurement,setting,value
"TNFR2-Fc (etanercept), vectorized (Fc fusion)","IC50 (read off the curve); HEK-Blue TNFα reporter (SEAP), % TNFα activity",[1],0.5 µg/mL
same,"IC50 (read off the curve); HEK-Blue TNFα reporter (SEAP), % TNFα activity",[2],0.9 µg/mL
